Experimental data reported in the supplement of paper PMC9732359.
± gives the uncertainty stated by the source.

Test: protein stability index of a GFP-peptide fusion (yeast GPS) (PSI 1-4); higher = more stable; sorted into four equal gates, so the index is relative within each strain
Method in brief: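 Plasmids in a pooled yeast library fused tiled 17-residue yeast protein peptides downstream of GFP and also expressed Cherry. Mid-log cultures grown without leucine were sorted into four equal gates by GFP/Cherry fluorescence ratio. Each gate's plasmids were PCR-amplified and Illumina-sequenced, and reads were matched to strains by barcodes. The protein stability index is derived by multiplying each gate's read frequency by its gate number and summing the results.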

| Sequence | protein stability index (doa10∆) | protein stability index (pdr5∆) | protein stability index (san1∆) | protein stability index (ubr1∆) |
| --- | --- | --- | --- | --- |
| GVRPFGVSLLIAGHDEF [PRE8] | 2.46 ± 0.1 | 1.95 ± 0.096 | 1.94 ± 0.2 | 1.93 ± 0.075 |
| TSCLQNNNQKIDDNYIV [SRB8] | 3.15 ± 0.072 | 3.1 ± 0.081 | 3.33 ± 0.11 | 3.05 ± 0.062 |
| WWTNSHHDGKLWNLNAY [PRP8] | 2.9 ± 0.21 | 2.76 ± 0.14 | 2.98 ± 0.082 | 2.45 ± 0.14 |
| HLLIKIIRQLSELNEGN [SRB8] | 2.8 ± 0.097 | 2.77 ± 0.089 | 3.18 ± 0.052 | 1.97 ± 0.053 |
| VAKRRFEYSKYRPLTPS [RRP6] | 3.27 ± 0.066 | 3.28 ± 0.084 | 3.15 ± 0.035 | 2.96 ± 0.049 |
| YTMSNHGMSVDPRHIQL [RPO31] | 2.85 ± 0.066 | 2.91 ± 0.083 | 2.94 ± 0.053 | 3.01 ± 0.044 |
| TNVNPSKNFNVILASSL [YML103C/NUP188] | 1.82 ± 0.05 | 2.16 ± 0.048 | 1.99 ± 0.08 | 1.91 ± 0.045 |
| LNSLSPQAILAKNSIID [SWI1] | 1.79 ± 0.033 | 1.72 ± 0.029 | 1.8 ± 0.044 | 1.75 ± 0.026 |
| EITHPPSTTDDENGDKN [SWI3] | 3.09 ± 0.074 | 3.07 ± 0.072 | 3.19 ± 0.055 | 3.31 ± 0.061 |
| GLTQLYKKSTENESTNY [MED7] | 3.08 ± 0.081 | 2.84 ± 0.081 | 2.56 ± 0.1 | 2.96 ± 0.05 |
| IFNFDQLVEITEQIKMR [SRB8] | 1.59 ± 0.1 | 1.6 ± 0.082 | 1.66 ± 0.14 | 1.48 ± 0.057 |
| MSEVITITKRNGAFQNS [RRP4] | 2.33 ± 0.083 | 2.31 ± 0.076 | 2.79 ± 0.067 | 2.18 ± 0.059 |
| KITTSTEDQKVTTNINW [SRP68] | 3.13 ± 0.078 | 3.13 ± 0.072 | 3.21 ± 0.068 | 3.11 ± 0.054 |
| YWFPLAHFLSLSFTPTT [RPN2] | 1.65 ± 0.036 | 1.34 ± 0.033 | 1.19 ± 0.076 | 1.19 ± 0.028 |
| ASFQIVEEDHTLGNALR [RPC19] | 2.74 ± 0.21 | 2.22 ± 0.23 |  | 3.35 ± 0.26 |
| DGIGGLTEQIRELREVI [RPT4] |  | 3.65 ± 0.28 |  |  |
| NPLWNAIIVAGVQSNGD [PRE4] | 1.25 ± 0.054 | 1.37 ± 0.044 | 1.53 ± 0.075 | 1.89 ± 0.04 |
| ASQPEPTTNEPAKPALS [YJL041W/NSP1] | 2.81 ± 0.097 | 3.14 ± 0.077 | 2.92 ± 0.059 | 3.12 ± 0.06 |
| SSEALEAARICANKYMT [RPL10] | 1.35 ± 0.13 | 1.82 ± 0.16 | 1.36 ± 0.19 | 1.29 ± 0.11 |
| SNRLLMDVDQFDFLDDG [YJR042W/NUP85] | 1.49 ± 0.097 | 1.37 ± 0.15 | 1.69 ± 0.27 | 1.23 ± 0.099 |

| Sequence | protein stability index (doa10∆) | protein stability index (pdr5∆) | protein stability index (san1∆) | protein stability index (ubr1∆) |
| --- | --- | --- | --- | --- |
| SILESSMFLRIDYSNSQ [RGR1] | 2.42 ± 0.083 | 2.14 ± 0.064 | 1.59 ± 0.095 | 2.41 ± 0.063 |
| KLLASTEENKANTNSVT [YIL149C/MLP2] | 3.32 ± 0.083 | 3.24 ± 0.066 | 3.25 ± 0.056 | 3.32 ± 0.036 |
| MDPQTLITKANKVSYYG [RTT102] | 1.85 ± 0.047 | 1.73 ± 0.042 | 1.71 ± 0.12 | 1.87 ± 0.052 |
| VSVIAPESQGQHEQQKQ [YMR153W/NUP53] | 2.92 ± 0.085 | 3.15 ± 0.097 | 2.91 ± 0.068 | 2.94 ± 0.068 |
| EEELFQEMIEISNVIKP [SRP54] | 3.04 ± 0.077 | 3.28 ± 0.066 | 3.34 ± 0.064 | 3.37 ± 0.13 |
| ETAKKITFHPKIRARSI [SMC2] | 2.91 ± 0.058 | 2.95 ± 0.06 | 2.92 ± 0.045 | 2.85 ± 0.05 |
| EKRWNDELELEDAIHIA [PRE8] | 3.35 ± 0.17 | 3.25 ± 0.1 | 3.26 ± 0.13 | 3.23 ± 0.2 |
| ISNGNLATGPNLTSEIE [YOR098C/NUP1] | 3.4 ± 0.096 | 3.39 ± 0.11 | 3.17 ± 0.06 | 3.41 ± 0.091 |
| GDHNKLRSTIANLLQIN [YML103C/NUP188] | 2.27 ± 0.054 | 2.35 ± 0.069 | 1.45 ± 0.13 | 1.87 ± 0.035 |
| SVRRSGALDVEGLCIVA [RRP45] | 2.47 ± 0.15 | 3.06 ± 0.11 | 3 ± 0.11 | 2.83 ± 0.18 |
| LEPSGSYWGYKGAATGK [PRE10] | 2.37 ± 0.27 |  |  | 2.37 ± 0.16 |
| QGIVPDIIMNPHGFPSR [RET1] | 2.64 ± 0.05 | 2.76 ± 0.057 | 2.74 ± 0.042 | 2.56 ± 0.037 |
| ESKDLLRASFNKLSSIL [SRB4] | 1.08 ± 0.097 | 1.33 ± 0.074 | 1.22 ± 0.16 | 1.1 ± 0.094 |
| DKLDDDGLIAPGVRVSG [RPB2] | 1.65 ± 0.19 | 2.23 ± 0.1 | 2.48 ± 0.27 | 1.71 ± 0.11 |
| FVVKLDTVDRLIIKYQK [GAL11] | 2.25 ± 0.042 | 2.3 ± 0.048 | 2.54 ± 0.054 | 2 ± 0.039 |
| SNNDEDDKDCTIKISTN [RGR1] | 2.94 ± 0.063 | 3.13 ± 0.062 | 2.89 ± 0.054 | 3 ± 0.054 |
| RLEEESSWQIYSDENDP [RRP4] |  | 2.93 ± 0.16 | 2.93 ± 0.24 | 3.53 ± 0.16 |
| PTRIRTKSSKEFFNTLR [RRI2] | 2.73 ± 0.13 | 3.01 ± 0.15 | 3.06 ± 0.081 | 2.91 ± 0.11 |
| QLKRWYWQFNGVIALGQ [RMP1] |  |  |  | 1.41 ± 0.22 |
